Laboratory results reported in patent publication US20240270846A1 (published 2024).

molecular target: T1, CD3 epsilon homodimer protein (UniProt P07766 23-126); assay: SPR Biacore T200, CD3e homodimer on chip, antibody analyte;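 further: CD3 epsilon homodimer amine-coupled on CM4 sensor chip, antibodies injected as analyte at 25 °C in HBS-EP+, ratio ≥0.8 taken as binding retained versus unaltered parent antibody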
T1 construct: Construct of the homodimer is not described; also called CD3 (CD3 epsilon)
T1 sequence (P07766 23-126): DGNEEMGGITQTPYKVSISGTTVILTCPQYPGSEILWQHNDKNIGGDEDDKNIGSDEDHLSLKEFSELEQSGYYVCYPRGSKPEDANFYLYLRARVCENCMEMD

Binder | ratio of amounts bound (altered form/GLS3000)
GLS3000 T92A one-arm antibody (antibody, human IgG1, kappa, L234A L235A, N297A, name in Kabat numbering) light: DIVMTQSPLSLPVTPGEPASISCRSSQSLVHSNRNTYLHWYQQKPGQAPRLLIYKVSNRFSGVPDRFSGSGSGTDFTLKISRVEAEDVGVYYCGQGAQVPYTFGQGTKLEIKRTVAAPSVFIFPPSDEQLKSGTASVVCLLNNFYPREAKVQWKVDNALQSGNSQESVTEQDSKDSTYSLSSTLTLSKADYEKHKVYACEVTHQGLSSPVTKSFNRGEC heavy: QVQLVESGGGVVQPGRSLRLSCAASGFTFSNAWMHWVRQAPGKGLEWVAQIKAKSNNYATYYAESVKGRFTISRDDSKNSLYLQMNSLKTEDTAVYYCRYVHYGAYYGVDAWGQGTTVTVSSASTKGPSVFPLAPSSKSTSGGTAALGCLVKDYFPEPVTVSWNSGALTSGVHTFPAVLQSSGLYSLSSVVTVPSSSLGTQTYICNVNHKPSNTKVDKKVEPKSCDKTHTCPPCPAPEAAGGPSVFLFPPKPKDTLMISRTPEVTCVVVDVSHEDPEVKFNWYVDGVEVHNAKTKPREEQYASTYRVVSVLTVLHQDWLNGKEYKCKVSNKALPAPIEKTISKAKGQPREPQVYTLPPSRCELTKNQVSLSCAVKGFYPSDIAVEWESNGQPENNYKTTPPVLDSDGSFFLVSKLTVDKSRWQQGNVFSCSVMHEALHNHYTQKSLSLSPDYKDDDDK EPKSSDKTHTCPPCPAPELLGGPSVFLFPPKPKDTLMISRTPEVTCVVVDVSHEDPEVKFNWYVDGVEVHNAKTKPREEQYNSTYRVVSVLTVLHQDWLNGKEYKCKVSNKALPAPIEKTISKAKGQPREPQVCTLPPSRDELTKNQVSLWCLVKGFYPSDIAVEWESNGQPENNYKTTPPVLDSDGSFFLYSKLTVDKSRWQQGNVFSCSVMHEALHNRYTQKSLSLSP | 0.63
GLS3000 T92D one-arm antibody (antibody, human IgG1, kappa, L234A L235A, N297A, name in Kabat numbering) light: DIVMTQSPLSLPVTPGEPASISCRSSQSLVHSNRNTYLHWYQQKPGQAPRLLIYKVSNRFSGVPDRFSGSGSGTDFTLKISRVEAEDVGVYYCGQGDQVPYTFGQGTKLEIKRTVAAPSVFIFPPSDEQLKSGTASVVCLLNNFYPREAKVQWKVDNALQSGNSQESVTEQDSKDSTYSLSSTLTLSKADYEKHKVYACEVTHQGLSSPVTKSFNRGEC heavy: QVQLVESGGGVVQPGRSLRLSCAASGFTFSNAWMHWVRQAPGKGLEWVAQIKAKSNNYATYYAESVKGRFTISRDDSKNSLYLQMNSLKTEDTAVYYCRYVHYGAYYGVDAWGQGTTVTVSSASTKGPSVFPLAPSSKSTSGGTAALGCLVKDYFPEPVTVSWNSGALTSGVHTFPAVLQSSGLYSLSSVVTVPSSSLGTQTYICNVNHKPSNTKVDKKVEPKSCDKTHTCPPCPAPEAAGGPSVFLFPPKPKDTLMISRTPEVTCVVVDVSHEDPEVKFNWYVDGVEVHNAKTKPREEQYASTYRVVSVLTVLHQDWLNGKEYKCKVSNKALPAPIEKTISKAKGQPREPQVYTLPPSRCELTKNQVSLSCAVKGFYPSDIAVEWESNGQPENNYKTTPPVLDSDGSFFLVSKLTVDKSRWQQGNVFSCSVMHEALHNHYTQKSLSLSPDYKDDDDK EPKSSDKTHTCPPCPAPELLGGPSVFLFPPKPKDTLMISRTPEVTCVVVDVSHEDPEVKFNWYVDGVEVHNAKTKPREEQYNSTYRVVSVLTVLHQDWLNGKEYKCKVSNKALPAPIEKTISKAKGQPREPQVCTLPPSRDELTKNQVSLWCLVKGFYPSDIAVEWESNGQPENNYKTTPPVLDSDGSFFLYSKLTVDKSRWQQGNVFSCSVMHEALHNRYTQKSLSLSP | 0.18
GLS3000 T92P one-arm antibody (antibody, human IgG1, kappa, L234A L235A, N297A, name in Kabat numbering) light: DIVMTQSPLSLPVTPGEPASISCRSSQSLVHSNRNTYLHWYQQKPGQAPRLLIYKVSNRFSGVPDRFSGSGSGTDFTLKISRVEAEDVGVYYCGQGPQVPYTFGQGTKLEIKRTVAAPSVFIFPPSDEQLKSGTASVVCLLNNFYPREAKVQWKVDNALQSGNSQESVTEQDSKDSTYSLSSTLTLSKADYEKHKVYACEVTHQGLSSPVTKSFNRGEC heavy: QVQLVESGGGVVQPGRSLRLSCAASGFTFSNAWMHWVRQAPGKGLEWVAQIKAKSNNYATYYAESVKGRFTISRDDSKNSLYLQMNSLKTEDTAVYYCRYVHYGAYYGVDAWGQGTTVTVSSASTKGPSVFPLAPSSKSTSGGTAALGCLVKDYFPEPVTVSWNSGALTSGVHTFPAVLQSSGLYSLSSVVTVPSSSLGTQTYICNVNHKPSNTKVDKKVEPKSCDKTHTCPPCPAPEAAGGPSVFLFPPKPKDTLMISRTPEVTCVVVDVSHEDPEVKFNWYVDGVEVHNAKTKPREEQYASTYRVVSVLTVLHQDWLNGKEYKCKVSNKALPAPIEKTISKAKGQPREPQVYTLPPSRCELTKNQVSLSCAVKGFYPSDIAVEWESNGQPENNYKTTPPVLDSDGSFFLVSKLTVDKSRWQQGNVFSCSVMHEALHNHYTQKSLSLSPDYKDDDDK EPKSSDKTHTCPPCPAPELLGGPSVFLFPPKPKDTLMISRTPEVTCVVVDVSHEDPEVKFNWYVDGVEVHNAKTKPREEQYNSTYRVVSVLTVLHQDWLNGKEYKCKVSNKALPAPIEKTISKAKGQPREPQVCTLPPSRDELTKNQVSLWCLVKGFYPSDIAVEWESNGQPENNYKTTPPVLDSDGSFFLYSKLTVDKSRWQQGNVFSCSVMHEALHNRYTQKSLSLSP | 0.26
GLS3000 T92L one-arm antibody (antibody, human IgG1, kappa, L234A L235A, N297A, name in Kabat numbering) light: DIVMTQSPLSLPVTPGEPASISCRSSQSLVHSNRNTYLHWYQQKPGQAPRLLIYKVSNRFSGVPDRFSGSGSGTDFTLKISRVEAEDVGVYYCGQGLQVPYTFGQGTKLEIKRTVAAPSVFIFPPSDEQLKSGTASVVCLLNNFYPREAKVQWKVDNALQSGNSQESVTEQDSKDSTYSLSSTLTLSKADYEKHKVYACEVTHQGLSSPVTKSFNRGEC heavy: QVQLVESGGGVVQPGRSLRLSCAASGFTFSNAWMHWVRQAPGKGLEWVAQIKAKSNNYATYYAESVKGRFTISRDDSKNSLYLQMNSLKTEDTAVYYCRYVHYGAYYGVDAWGQGTTVTVSSASTKGPSVFPLAPSSKSTSGGTAALGCLVKDYFPEPVTVSWNSGALTSGVHTFPAVLQSSGLYSLSSVVTVPSSSLGTQTYICNVNHKPSNTKVDKKVEPKSCDKTHTCPPCPAPEAAGGPSVFLFPPKPKDTLMISRTPEVTCVVVDVSHEDPEVKFNWYVDGVEVHNAKTKPREEQYASTYRVVSVLTVLHQDWLNGKEYKCKVSNKALPAPIEKTISKAKGQPREPQVYTLPPSRCELTKNQVSLSCAVKGFYPSDIAVEWESNGQPENNYKTTPPVLDSDGSFFLVSKLTVDKSRWQQGNVFSCSVMHEALHNHYTQKSLSLSPDYKDDDDK EPKSSDKTHTCPPCPAPELLGGPSVFLFPPKPKDTLMISRTPEVTCVVVDVSHEDPEVKFNWYVDGVEVHNAKTKPREEQYNSTYRVVSVLTVLHQDWLNGKEYKCKVSNKALPAPIEKTISKAKGQPREPQVCTLPPSRDELTKNQVSLWCLVKGFYPSDIAVEWESNGQPENNYKTTPPVLDSDGSFFLYSKLTVDKSRWQQGNVFSCSVMHEALHNRYTQKSLSLSP | 0.42
GLS3000 T92I one-arm antibody (antibody, human IgG1, kappa, L234A L235A, N297A, name in Kabat numbering) light: DIVMTQSPLSLPVTPGEPASISCRSSQSLVHSNRNTYLHWYQQKPGQAPRLLIYKVSNRFSGVPDRFSGSGSGTDFTLKISRVEAEDVGVYYCGQGIQVPYTFGQGTKLEIKRTVAAPSVFIFPPSDEQLKSGTASVVCLLNNFYPREAKVQWKVDNALQSGNSQESVTEQDSKDSTYSLSSTLTLSKADYEKHKVYACEVTHQGLSSPVTKSFNRGEC heavy: QVQLVESGGGVVQPGRSLRLSCAASGFTFSNAWMHWVRQAPGKGLEWVAQIKAKSNNYATYYAESVKGRFTISRDDSKNSLYLQMNSLKTEDTAVYYCRYVHYGAYYGVDAWGQGTTVTVSSASTKGPSVFPLAPSSKSTSGGTAALGCLVKDYFPEPVTVSWNSGALTSGVHTFPAVLQSSGLYSLSSVVTVPSSSLGTQTYICNVNHKPSNTKVDKKVEPKSCDKTHTCPPCPAPEAAGGPSVFLFPPKPKDTLMISRTPEVTCVVVDVSHEDPEVKFNWYVDGVEVHNAKTKPREEQYASTYRVVSVLTVLHQDWLNGKEYKCKVSNKALPAPIEKTISKAKGQPREPQVYTLPPSRCELTKNQVSLSCAVKGFYPSDIAVEWESNGQPENNYKTTPPVLDSDGSFFLVSKLTVDKSRWQQGNVFSCSVMHEALHNHYTQKSLSLSPDYKDDDDK EPKSSDKTHTCPPCPAPELLGGPSVFLFPPKPKDTLMISRTPEVTCVVVDVSHEDPEVKFNWYVDGVEVHNAKTKPREEQYNSTYRVVSVLTVLHQDWLNGKEYKCKVSNKALPAPIEKTISKAKGQPREPQVCTLPPSRDELTKNQVSLWCLVKGFYPSDIAVEWESNGQPENNYKTTPPVLDSDGSFFLYSKLTVDKSRWQQGNVFSCSVMHEALHNRYTQKSLSLSP | 0.34
GLS3000 T92E one-arm antibody (antibody, human IgG1, kappa, L234A L235A, N297A, name in Kabat numbering) light: DIVMTQSPLSLPVTPGEPASISCRSSQSLVHSNRNTYLHWYQQKPGQAPRLLIYKVSNRFSGVPDRFSGSGSGTDFTLKISRVEAEDVGVYYCGQGEQVPYTFGQGTKLEIKRTVAAPSVFIFPPSDEQLKSGTASVVCLLNNFYPREAKVQWKVDNALQSGNSQESVTEQDSKDSTYSLSSTLTLSKADYEKHKVYACEVTHQGLSSPVTKSFNRGEC heavy: QVQLVESGGGVVQPGRSLRLSCAASGFTFSNAWMHWVRQAPGKGLEWVAQIKAKSNNYATYYAESVKGRFTISRDDSKNSLYLQMNSLKTEDTAVYYCRYVHYGAYYGVDAWGQGTTVTVSSASTKGPSVFPLAPSSKSTSGGTAALGCLVKDYFPEPVTVSWNSGALTSGVHTFPAVLQSSGLYSLSSVVTVPSSSLGTQTYICNVNHKPSNTKVDKKVEPKSCDKTHTCPPCPAPEAAGGPSVFLFPPKPKDTLMISRTPEVTCVVVDVSHEDPEVKFNWYVDGVEVHNAKTKPREEQYASTYRVVSVLTVLHQDWLNGKEYKCKVSNKALPAPIEKTISKAKGQPREPQVYTLPPSRCELTKNQVSLSCAVKGFYPSDIAVEWESNGQPENNYKTTPPVLDSDGSFFLVSKLTVDKSRWQQGNVFSCSVMHEALHNHYTQKSLSLSPDYKDDDDK EPKSSDKTHTCPPCPAPELLGGPSVFLFPPKPKDTLMISRTPEVTCVVVDVSHEDPEVKFNWYVDGVEVHNAKTKPREEQYNSTYRVVSVLTVLHQDWLNGKEYKCKVSNKALPAPIEKTISKAKGQPREPQVCTLPPSRDELTKNQVSLWCLVKGFYPSDIAVEWESNGQPENNYKTTPPVLDSDGSFFLYSKLTVDKSRWQQGNVFSCSVMHEALHNRYTQKSLSLSP | 0.17
